Shift to pellet (%) data for two substances are collected here from paper PMC9635285.

In experiment [1] the target is Taxol-stabilised microtubules polymerised from porcine brain tubulin (porcine) (UniProt P02550). Description: co-sedimentation.
Experiment [2] has as its target subtilisin-digested microtubules (lacking E-hooks) (porcine) (UniProt P02550). In words: co-sedimentation.

Where “and” joins values, the source holds several entries; their conditions need not be identical. Identical values can stand only once.

Sequence of UniProt P02550 (P02550 whole entry, looked up): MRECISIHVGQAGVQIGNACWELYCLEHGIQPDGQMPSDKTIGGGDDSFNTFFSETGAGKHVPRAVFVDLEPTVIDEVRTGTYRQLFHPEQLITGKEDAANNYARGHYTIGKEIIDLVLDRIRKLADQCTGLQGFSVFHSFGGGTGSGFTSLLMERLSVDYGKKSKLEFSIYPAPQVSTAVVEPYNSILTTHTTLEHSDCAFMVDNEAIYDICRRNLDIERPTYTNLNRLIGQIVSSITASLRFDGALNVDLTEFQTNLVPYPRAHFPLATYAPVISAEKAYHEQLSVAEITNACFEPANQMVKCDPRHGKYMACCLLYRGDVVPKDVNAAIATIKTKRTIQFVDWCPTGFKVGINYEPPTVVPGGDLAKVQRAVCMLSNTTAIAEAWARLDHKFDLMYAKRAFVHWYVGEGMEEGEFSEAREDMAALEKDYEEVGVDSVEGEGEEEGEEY

As for “KLP-18 C-stalk (C-terminal half of the KLP-18 stalk) (domain or fragment)”, the Shift to pellet (%) in experiment [1] was 52.7% and 50.8%; in experiment [2], 26.7%.

Regarding MBP-MESP-1 (natural protein), the Shift to pellet (%) in experiment [1] is 56.1% and 41.6%.
